biological target: EphA4 Fc (EphA4 receptor extracellular domain fused to a human Fc region); assay: inhibition of ephrin-A5 AP binding to EphA4
Sequence (Q03137 20-547): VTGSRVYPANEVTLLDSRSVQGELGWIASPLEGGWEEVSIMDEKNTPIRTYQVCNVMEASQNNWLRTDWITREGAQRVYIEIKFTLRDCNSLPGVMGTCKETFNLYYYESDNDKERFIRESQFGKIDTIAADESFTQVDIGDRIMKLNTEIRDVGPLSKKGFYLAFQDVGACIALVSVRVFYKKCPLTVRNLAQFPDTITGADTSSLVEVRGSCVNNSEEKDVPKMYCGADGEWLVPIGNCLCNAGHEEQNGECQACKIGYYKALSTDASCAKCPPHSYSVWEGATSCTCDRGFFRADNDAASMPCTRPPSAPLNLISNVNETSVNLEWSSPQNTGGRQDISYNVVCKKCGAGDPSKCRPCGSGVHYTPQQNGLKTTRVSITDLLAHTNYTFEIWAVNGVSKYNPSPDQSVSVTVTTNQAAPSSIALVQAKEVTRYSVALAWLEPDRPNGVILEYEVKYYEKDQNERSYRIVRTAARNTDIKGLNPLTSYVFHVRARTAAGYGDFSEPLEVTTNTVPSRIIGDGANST

Going from synthetic APY peptide (…) to synthetic KYL peptide (…), the concentration that almost completely inhibits ephrin-A5 AP binding falls from 10 µM to 1 µM (10-fold).

With synthetic VTM peptide (…) the concentration that almost completely inhibits ephrin-A5 AP binding was 100 µM.

— patent EP1852441B1, “Agents that modulate EPH receptor activity” (The Burnham Institute, priority 2002, dated 2004)
